The text below walks through data of paper PMC12609799, “Novel Dual-Coenzyme Specificity and Thermostability of Malate Dehydrogenase Identified in the Cyanobacterium Microcystis aeruginosa PCC7806” (International Journal of Molecular Sciences, 2025).

For orientation: Km means the concentration of substrate that gives half-maximal velocity. The kcat is the number of substrate molecules converted per active site and unit of time at saturation. What is called kcat/Km is the second-order rate constant that governs catalysis at low substrate concentration.

Substrate in series [1]: NC(=O)C1=CN([C@@H]2O[C@H](COP(=O)(O)OP(=O)(O)OC[C@H]3O[C@@H](n4cnc5c(N)ncnc54)[C@H](O)[C@@H]3O)[C@@H](O)[C@H]2O)C=CC1
The experiment in a line: purified protein. Particulars: oxaloacetate reduction, 100 mM Tris-HCl pH 8.0, 25 °C, apparent, varied: cofactor. It is filed as biochemical, Microcystis aeruginosa.

Substrate in series [2]: NC(=O)C1=CN([C@@H]2O[C@H](COP(=O)(O)OP(=O)(O)OC[C@H]3O[C@@H](n4cnc5c(N)ncnc54)[C@H](OP(=O)(O)O)[C@@H]3O)[C@@H](O)[C@H]2O)C=CC1
The experiment in a line: purified protein. The conditions noted are these: oxaloacetate reduction, 100 mM Tris-HCl pH 8.0, 25 °C, apparent, varied: cofactor. It is filed as biochemical, Microcystis aeruginosa.

B1: MaMDH (Ma7806MDH) (Microcystis aeruginosa PCC 7806SL) (protein)
chain: MVDFYDTLIPCQSPRVSVIGAGNVGRTLAQRIAEKNLADVVLLDIVHGLPQGIALDLMEAQGIELHDSEIIGTNNYEDTAGSDIVVITAGLARKPGMSRDDLMNVNAKIVVEAATKCLKYSPEAIFIVITNPLDVMTYLVWQATGLPPQRVMGMAGVLDSSRLQTFIAMELGVSTADVHAMVLGGHGDLMLPLPRYCTVSGVPITELMDEITINRLVERTRNGGAEIVKLLQTGGAYYAPASSACTMVETILRNQSRLLPAAAYLKGEYGLQDVYLGVPCRLGCRGVESILEVRLTDAERLDLHTSAASVRQNVHLALDSLKVLM
Turning to B1, in the series “purified protein [1]”, the Michaelis-Menten constant (Km) is 33.140 ± 0.95 µM, the kcat turned out to be 31.7 ± 1.43 s⁻¹ and the kcat/Km stood at 956000 M⁻¹ s⁻¹. In the series “purified protein [2]”, the Km is 113.200 ± 3.46 µM, the kcat was determined as 8.71 ± 1.45 s⁻¹ and the catalytic efficiency (kcat/Km) stood at 77000 M⁻¹ s⁻¹.
